1 molecule from doi:10.1101/2024.10.02.616340 (bioRxiv, 2024) can be followed below.

In test [1] the target is yeast Mcm3 (subunit of CMG) (budding yeast, UniProt P24279 1-971). Put plainly: cryo-EM structure.
For test [2], the target named is T1, yeast Mcm4 (subunit of CMG) (budding yeast, UniProt P30665 1-933).
T1 sequence: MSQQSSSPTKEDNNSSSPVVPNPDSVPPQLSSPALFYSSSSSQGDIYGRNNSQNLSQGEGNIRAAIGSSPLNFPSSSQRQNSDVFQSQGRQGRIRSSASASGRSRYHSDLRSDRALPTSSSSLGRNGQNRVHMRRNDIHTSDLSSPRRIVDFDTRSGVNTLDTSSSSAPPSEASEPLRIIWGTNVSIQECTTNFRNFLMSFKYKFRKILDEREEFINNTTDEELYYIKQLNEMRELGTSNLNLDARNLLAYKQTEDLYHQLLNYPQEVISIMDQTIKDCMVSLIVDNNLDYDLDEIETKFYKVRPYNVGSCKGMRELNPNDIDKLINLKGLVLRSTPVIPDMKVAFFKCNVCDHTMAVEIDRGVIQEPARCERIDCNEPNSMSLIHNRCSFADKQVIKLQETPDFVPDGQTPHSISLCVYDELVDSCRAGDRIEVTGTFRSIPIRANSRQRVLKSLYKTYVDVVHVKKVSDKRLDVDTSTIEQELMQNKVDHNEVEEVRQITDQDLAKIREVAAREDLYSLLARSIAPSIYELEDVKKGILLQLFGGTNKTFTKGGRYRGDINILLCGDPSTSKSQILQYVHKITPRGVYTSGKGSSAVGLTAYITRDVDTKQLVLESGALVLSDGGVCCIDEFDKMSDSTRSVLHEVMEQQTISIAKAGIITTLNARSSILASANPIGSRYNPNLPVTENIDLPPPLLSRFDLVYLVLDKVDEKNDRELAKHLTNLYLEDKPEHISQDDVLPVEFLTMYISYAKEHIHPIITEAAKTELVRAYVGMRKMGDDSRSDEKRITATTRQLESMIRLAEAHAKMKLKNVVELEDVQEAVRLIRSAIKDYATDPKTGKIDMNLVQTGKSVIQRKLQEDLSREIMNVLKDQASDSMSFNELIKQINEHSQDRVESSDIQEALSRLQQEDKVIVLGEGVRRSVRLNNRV
Put plainly: cryo-EM structure.

Sequence of yeast Mcm3 (subunit of CMG) (P24279 whole entry): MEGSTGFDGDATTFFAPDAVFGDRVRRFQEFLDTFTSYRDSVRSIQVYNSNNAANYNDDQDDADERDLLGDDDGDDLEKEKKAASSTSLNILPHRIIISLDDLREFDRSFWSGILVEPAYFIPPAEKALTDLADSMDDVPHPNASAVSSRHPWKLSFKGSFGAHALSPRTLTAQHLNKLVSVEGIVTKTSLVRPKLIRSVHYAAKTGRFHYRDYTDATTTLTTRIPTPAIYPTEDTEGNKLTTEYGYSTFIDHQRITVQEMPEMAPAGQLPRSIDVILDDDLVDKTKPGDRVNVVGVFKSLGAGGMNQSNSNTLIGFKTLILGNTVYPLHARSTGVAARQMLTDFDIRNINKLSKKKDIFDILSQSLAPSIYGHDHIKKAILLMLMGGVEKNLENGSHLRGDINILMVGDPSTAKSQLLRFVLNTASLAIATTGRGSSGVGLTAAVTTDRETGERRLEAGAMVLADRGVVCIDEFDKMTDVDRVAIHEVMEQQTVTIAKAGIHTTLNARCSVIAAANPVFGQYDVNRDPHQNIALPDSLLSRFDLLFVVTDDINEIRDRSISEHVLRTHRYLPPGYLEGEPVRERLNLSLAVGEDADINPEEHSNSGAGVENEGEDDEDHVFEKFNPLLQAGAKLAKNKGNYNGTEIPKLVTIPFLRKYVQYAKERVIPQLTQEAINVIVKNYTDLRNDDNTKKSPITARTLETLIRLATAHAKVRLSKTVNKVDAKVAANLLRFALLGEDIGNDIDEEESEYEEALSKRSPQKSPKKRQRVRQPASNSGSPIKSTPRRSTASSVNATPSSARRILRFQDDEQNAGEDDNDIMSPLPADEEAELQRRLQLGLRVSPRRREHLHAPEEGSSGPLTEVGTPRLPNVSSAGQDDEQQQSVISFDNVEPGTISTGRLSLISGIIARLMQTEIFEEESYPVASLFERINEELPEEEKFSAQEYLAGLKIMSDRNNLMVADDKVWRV

B1: yeast Mcm7 (subunit of CMG) (natural protein)
chain: MSAALPSIQLPVDYNNLFNEITDFLVTFKQDTLSSDATRNENEDENLDAENIEQHLLEKGPKYMAMLQKVANRELNSVIIDLDDILQYQNEKFLQGTQADDLVSAIQQNANHFTELFCRAIDNNMPLPTKEIDYKDDVLDVILNQRRLRNERMLSDRTNEIRSENLMDTTMDPPSSMNDALREVVEDETELFPPNLTRRYFLYFKPLSQNCARRYRKKAISSKPLSVRQIKGDFLGQLITVRGIITRVSDVKPAVEVIAYTCDQCGYEVFQEVNSRTFTPLSECTSEECSQNQTKGQLFMSTRASKFSAFQECKIQELSQQVPVGHIPRSLNIHVNGTLVRSLSPGDIVDVTGIFLPAPYTGFKALKAGLLTETYLEAQFVRQHKKKFASFSLTSDVEERVMELITSGDVYNRLAKSIAPEIYGNLDVKKALLLLLVGGVDKRVGDGMKIRGDINVCLMGDPGVAKSQLLKAICKISPRGVYTTGKGSSGVGLTAAVMKDPVTDEMILEGGALVLADNGICCIDEFDKMDESDRTAIHEVMEQQTISISKAGINTTLNARTSILAAANPLYGRYNPRLSPLDNINLPAALLSRFDILFLMLDIPSRDDDEKLAEHVTYVHMHNKQPDLDFTPVEPSKMREYIAYAKTKRPVMSEAVNDYVVQAYIRLRQDSKREMDSKFSFGQATPRTLLGIIRLSQALAKLRLADMVDIDDVEEALRLVRVSKESLYQETNKSKEDESPTTKIFTIIKKMLQETGKNTLSYENIVKTVRLRGFTMLQLSNCIQEYSYLNVWHLINEGNTLKFVDDGTMDTDQEDSLVSTPKLAPQTTASANVSAQDSDIDLQDA
For B1, the binding result in test [1] and in test [2] was “binds” throughout.
